US5705154, “Humanized monoclonal antibodies against human interleukin-4” (Schering Corporation, dated 1998)
Values joined by “and” are separate entries in the source; they are usually repeats but may differ in a detail not shown here. Equal entries are not always repeated.

What was measured:
human interleukin-4 [1] = target: T1, human interleukin-4 (human, UniProt P05112, radioiodinated (125I, IODOGEN method) in the binding and competition assays; unlabelled in the reporter gene assay); assay: inhibition of 125I-hIL-4 binding to the human IL-4 receptor on Jijoye CJ cells, 4 C
Procedure: The humanized antibodies were assayed for the ability to inhibit the binding of radiolabelled hIL-4 to the recombinant human IL-4 receptor expressed on Jijoye CJ cells in microtiter plates. Briefly, the humanized antibodies were serially diluted in cell growth medium at protein concentrations of from 8.6 nM to 4 pM. Rat antibody 25D2 was similarly diluted and used as a positive control. Jijoye CJ cells (10^5 cells) and 44 pM ^125I-hIL-4 were then added to each well (200 μl final volume per well) and the plates were incubated for 2 hours at 4° C.
Humanized antibodies h25D2-1 and h25D2-4 antibodies were assayed as described above for the ability to inhibit binding of radiolabeled hIL-4 to recombinant hIL-4 receptors expressed on the Jijoye CJ cell line.

human interleukin-4 [2] = target: T1, human interleukin-4
human interleukin-4 [3] = target: T1, human interleukin-4; assay: apparent Kd, Scatchard analysis; antibody from COS conditioned medium captured on anti-human IgG4 Fc plates, 125I-hIL-4, room temperature
Procedure: The wells were washed and incubated with ^125I-hIL-4 at concentrations between 4,000 and 2 pM in final volumes of 100 μl. All assays were performed in triplicate, and the background binding was determined by using a 1000-fold molar excess of unlabelled hIL4 in control wells. After incubation for 2 hours at room temperature, the wells were washed, the protein was solubilized in 75 μl of Solubilization buffer [0.1N NaOH/1% sodium dodecylsulfate (SDS)], and the solution was counted in an LKB gamma counter. Concentrations of bound and free hIL4 were determined, and the affinities of the antibodies were determined by Scatchard plot analysis [Berzofsky et al., in *Fundamental Immunology*, 1984, Paul, E. E., Ed., Raven Press, N.Y., N.Y., pp. 595–644].
All five variants of the humanized heavy chain gene were independently co-transfected into COS 7 cells with the pKM20 light chain vector. The serum-free conditioned medium was harvested after 72 hours and concentrated.

human interleukin-4 [4] = target: T1, human interleukin-4; remark: listed apart in the source
human interleukin-4 [5] = target: T1, human interleukin-4; assay: plate competition assay at room temperature (about 22 C); free antibody against immobilized 25D2 as competitor for 125I-hIL-4
Procedure: (§1) Immunosorb plates were coated with a 60 ng/ml solution of the rat 25D2 antibody diluted in PBS (100 μl/well) for at least 16 hours at 4° C. The wells were then blocked with Blocking buffer (3% BSA in PBS) for 4 hours at room temperature. Fifty microliters of 2-fold serially diluted competing antibodies plus the appropriate amount of ^125I-hIL-4 ([…] total volume) were added to each well, and the plates were incubated at room temperature for 16–24 hours. The plates were washed 3 times with potassium phosphate, pH 7.4, plus 0.05% Tween 20. The wells were aspirated dry, and 75 μl of Solubilization buffer (0.1N NaOH/1% SDS) was added to each well and incubated for 30 minutes at room temperature. The solution was removed from each well and counted in an LKB gamma counter.
A plate competition assay was carried out as described above using ^125I-hIL-4, immobilized rat antibody 25D2, and varying levels of free antibodies 25D2, h25D2-1 or h25D2-9.

human interleukin-4 [6] = target: T1, human interleukin-4; assay: plate competition assay at room temperature; free antibody against immobilized 25D2 as competitor for 125I-hIL-4
Procedure: as §1
To further characterize humanized antibody variants h25D2-1 and h25D2-4, competitive binding assays with the humanized antibodies and rat antibody 25D2 were performed as described above.

human interleukin-4 [7] = target: T1, human interleukin-4; assay: apparent Kd, Scatchard analysis; purified antibody captured on anti-rat IgG Fc plates, 125I-hIL-4, room temperature

B1: humanized antibody h25D2-1 (antibody, V domains shown)
VH: EVQLLESGGGLVQPGGSLRLSCAASGFSFRSYWMTWVRQAPGKGLEWVASISISGDNTYYPDSVRGRFTISRNDSKNTLYLQMNGLQAEVSAIYYCARDPYYFSGHYFDFWGQGTLVTVSS
VL: DIQMTQSPSSLSVSVGDRVTITCKASQNIYKNLAWYQQKPGLAPKLLIYNAKSLETGVPSRFSGSGSGTDFTFTISSLQPEDIATYYCQQYYSGWTFGQGTKVEVKR
IC50 (human interleukin-4 [1]): 0.5 nM and 1 nM
IC50, inhibition of human growth hormone expression under the germline epsilon promoter in Jijoye C12 cells with 1 ng/mL hIL-4 (human interleukin-4 [2]): 0.12 nM
Kd (human interleukin-4 [3]): 4 nM
concentration for fifty percent inhibition in the germline epsilon reporter assay, Jijoye C12 cells (FIG. 3), against 25D2 and h25D2-9 (human interleukin-4 [4]): 5 fold
concentration for fifty percent inhibition relative to antibody h25D2-9 (human interleukin-4 [5]): 2 fold
fold less effective than antibody 25D2 in competition (human interleukin-4 [6]): 3 fold

B2: rat monoclonal antibody 25D2 (antibody, V domains shown)
VH: ELQLVESGGGLVQPGRSLKLSCVASGFSFRSYWMTWVRQAPGKGLEWIASISISGDNTYYPDSVRGRFTISRDDAKSILYLQMNSLRSEDTATYYCVRDPYYFSGHYFDFWGQGVMVTVSS
VL: DIQMTQSPSLLSASVGDRVTLNCKASQNIYKNLAWYQQKLGEAPKFLIFNAKSLETGVPSRFSGSGSGTDFTLTISSLQPEDVATYFCQQYYSGWTFGGGTKLELKR
Kd (human interleukin-4 [7]): 1 nM
IC50 (human interleukin-4 [1]): 0.5 to 1 nM and 1 nM
IC50, inhibition of human growth hormone expression under the germline epsilon promoter in Jijoye C12 cells with 1 ng/mL hIL-4 (human interleukin-4 [2]): 0.02 to 0.04 nM
